Assay results reported in patent US20240262915A1 (NANJING SANHOME PHARMACEUTICAL, published 2024).

Assays:
[1] = biological target: T1, full-length TIGIT on hTIGIT-CHO-K1 cells (human, UniProt Q495A1 22-244); assay: FACS on hTIGIT-CHO-K1 cells
T1 construct: CHO-K1 cells stably transfected with pTargeT-TIGIT; also called TIGIT on cell surface
T1 sequence: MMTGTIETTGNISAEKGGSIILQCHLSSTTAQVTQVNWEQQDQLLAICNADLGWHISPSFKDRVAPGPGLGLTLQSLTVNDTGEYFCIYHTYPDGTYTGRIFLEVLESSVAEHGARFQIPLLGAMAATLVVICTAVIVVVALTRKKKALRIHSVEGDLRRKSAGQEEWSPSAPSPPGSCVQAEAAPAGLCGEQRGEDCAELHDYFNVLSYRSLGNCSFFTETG

[2] = biological target: T2, Human TIGIT-His protein (Sino Biological, 10917-H08H) (human, UniProt Q495A1 22-141); assay: ELISA, human TIGIT-His coated
T2 sequence (looked up): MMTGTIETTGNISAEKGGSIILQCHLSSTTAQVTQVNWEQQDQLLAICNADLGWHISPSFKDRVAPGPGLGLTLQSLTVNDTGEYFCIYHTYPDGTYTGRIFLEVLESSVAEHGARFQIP

[3] = biological target: T3, TIGIT-his (extracellular region of human TIGIT protein fused with his) (human, UniProt Q495A1 22-141); assay: BLI, Fortebio Octet RED96, SA sensor
T3 construct: also called antigen TIGIT-his
T3 sequence: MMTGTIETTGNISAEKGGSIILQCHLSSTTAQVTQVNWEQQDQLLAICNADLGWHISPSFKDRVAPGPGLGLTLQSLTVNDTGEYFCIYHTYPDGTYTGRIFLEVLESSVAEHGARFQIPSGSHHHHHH

[4] = biological target: T4, TIGIT-mFc (extracellular region of human TIGIT with mIgG1-Fc tag) (human); assay: ELISA, blocking of TIGIT-mFc binding to coated CD155-hFc (competitor CD155-hFc)
T4 construct: A bought TIGIT-mFc (Acro Biosystems TIT-H5253) is used for immunization; also called recombinant humanized TIGIT-mFc
T4 chain: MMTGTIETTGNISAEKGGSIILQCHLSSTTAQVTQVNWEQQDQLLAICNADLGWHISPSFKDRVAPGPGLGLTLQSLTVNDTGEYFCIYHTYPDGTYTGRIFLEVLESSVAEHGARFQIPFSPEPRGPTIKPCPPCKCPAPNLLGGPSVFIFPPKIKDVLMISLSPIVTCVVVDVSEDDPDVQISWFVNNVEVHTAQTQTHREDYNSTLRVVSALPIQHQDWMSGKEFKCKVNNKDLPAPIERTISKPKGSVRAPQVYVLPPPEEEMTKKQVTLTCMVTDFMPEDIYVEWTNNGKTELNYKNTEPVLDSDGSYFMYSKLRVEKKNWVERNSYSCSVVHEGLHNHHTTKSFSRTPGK

PD-L1-his = biological target: T5, PD-L1-his (human, UniProt Q9NZQ7 19-238, limits assumed); assay: BLI, Fortebio Octet RED96, antibody on AHC sensor, PD-L1-his in solution
T5 construct: also called human PD-L1 protein

[5] = biological target: T6, TIGIT on TIGIT/NFAT-reporter-Jurkat cells (UniProt Q495A1 22-244, limits assumed); assay: cell-based or functional assay
T6 sequence (looked up): T1 sequence

T5 sequence (Q9NZQ7 19-238 limits assumed): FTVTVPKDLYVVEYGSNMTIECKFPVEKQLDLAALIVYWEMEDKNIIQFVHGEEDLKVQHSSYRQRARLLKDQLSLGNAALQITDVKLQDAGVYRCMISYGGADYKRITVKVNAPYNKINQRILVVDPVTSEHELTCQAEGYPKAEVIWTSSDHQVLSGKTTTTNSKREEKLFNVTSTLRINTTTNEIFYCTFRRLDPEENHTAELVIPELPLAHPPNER

B1: SHS006-T-Hu17-31 (antibody, IgG4, V domains shown)
VH: QVTLKESGPVLVKPTETLTLTCTFSGFSLRTYGLGVGWIRQPPGKALEWLANIWWDDDEYYNPSLKNRLTISKDTSKSQAVLTMTNMDPVDTATYYCARIARPHYYWDGRYILDVWGQGTTVTVSS
VL: DIVMTQSPLSLPVTPGEPASISCRSSKSLLHSNGITYLSWYLQKPGQSPQLLIYQISNLASGVPDRFSGSGSGTDFTLKISRVEAEDVGVYYCMQFLEVPYTFGQGTKLEIK
notes: Humanized
[1]
  EC50: 0.303 nM
[2]
  EC50: 1.59 nM
[3]
  Kd: 0.327 nM
  koff: 0.000239 s⁻¹
  kon: 731000 M⁻¹ s⁻¹
[4]
  IC50: 0.954 nM

B2: HuPL16-42 (antibody, IgG4, V domains shown)
VH: QVQLVQSGAEVAKPGASVKMSCKASGYTFTRNTMHWIKQAPGQRLEWIGFIDPHNTYTRYNQKFKDRATLTADTSASTAYMELSSLRSEDTAVYYCARWPMDYWGQGTLVTVSS
VL: DIVMTQSPDSLAVSLGERVTMRCKSSQSLSWSENQNNYLSWYQQKPGQPPKLLIYGASIRESGVPDRFSGSGSGTDFTLTISSVQAEDVGVYYCQHNHGSFLPYTFGQGTKLEIK
notes: also called humanized anti-PD-L1 antibody HuPL16-42
PD-L1-his
  Kd: 1.9 nM
  koff: 0.000225 s⁻¹
  kon: 119000 M⁻¹ s⁻¹

B3: SHS006-23 (antibody, V domains shown)
VH: EVQLVESEGGLVQPGASVKLSCVGSGFSFSDHWMSWVRQTPGKTMEWIGNIQYDGSYTNYAPSLKNRFTISRDNAKNTLYLQMTNLRSEDTATYYCTRGHFRITMASMGASASVYWGQGVMVTVSS
VL: DIQMTQSPSSLPTSLGDRVTITCRTSQDIGNSLRWFQQKPGKSPRLMIHGATNLANGVPSRFSGSRAGSDYSLTINSLESEDMAMYYCLQHNEYPLTFGSGTKLEIK
[5]
  EC50 (nM), luciferase expression induced by anti-TIGIT antibody: 0.019 nM
  Top (fold), luciferase expression induced by anti-TIGIT antibody: 1.62 fold

B4: SHS006-23CHI (antibody, V domains shown)
VH: B3 VH
VL: B3 VL
notes: Chimeric antibody with human heavy and light chain constant regions
[1]
  EC50: 0.235 nM
[2]
  EC50: 1.69 nM
[4]
  IC50: 1.04 nM

B5: SHS006-17CHI (antibody, V domains shown)
VH: QVTLKESGPGILQPSQTLSLTCTFSGFSLRTYGLGVGWIRQLSGKGLEWLANIWWDDDEYYNPSLKNRLTISKDTSNNQAFLKITNVDTADTATYYCARIARPHYYWDGRYILDVWGQGASVTVSS
VL: DIMMTQSPLSVAVTPGESASISCRSSKSLLHSNGITYLSWYLQRPEKSPQLLIFQISNLASGVSDRFSGSGSGTDFTLIISKVETEDVGIYYCMQFLEVPYTFGAGTKLELK
notes: as for B4
[1]
  EC50: 0.408 nM
[2]
  EC50: 1.58 nM
[4]
  IC50: 1.03 nM

B6: humanized antibody 22G2 (antibody, IgG4, V domains shown)
VH: QVQLQESGPGLVKPSETLSLTCTVSGGSVSSGIYYWSWIRQPPGKGLEWIGYIYYSGSTNYNPSLKSRVTISVDTSKNQFSLKLSSVTAADTAVYYCARDYYVSGNYYNVDYYFFGVDVWGQGTTVTVSS
VL: EIVLTQSPATLSLSPGERATLSCRASQSVSSYLAWYQQKPGQAPRLLIYDASNRATGIPARFSGSGSGTDFTLTISSLEPEDFAVYYCQQRSNWPPLFTFGPGTKVDIK
notes: Expressed from pHR-22G2-hG4 (IgG4 heavy chain) and pHR-22G2-hk (light chain); from US 2016/0176963A1; also called positive control antibody
[5]
  EC50 (nM), luciferase expression induced by anti-TIGIT antibody: 0.104 nM
  Top (fold), luciferase expression induced by anti-TIGIT antibody: 1.59 fold
[1]
  EC50: 0.411 nM
[4]
  IC50: 1.34 nM

B7: HuPL7-21 (antibody, IgG4, V domains shown)
VH: QVQLQESGPGLVKPSQTLSLTCTVSGDSITSGYWNWIRQHPGKGLEYIGYISYTGSTYYNLSLKSRVTISRDTSKNQFSLKLSSVTAADTAVYYCARYILWLRHFDYWGQGTLVTVSS
VL: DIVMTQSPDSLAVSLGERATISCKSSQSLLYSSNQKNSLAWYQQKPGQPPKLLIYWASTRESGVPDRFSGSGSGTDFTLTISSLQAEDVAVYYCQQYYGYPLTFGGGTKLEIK
notes: also called humanized anti-PD-L1 antibody HuPL7-21
PD-L1-his
  Kd: 1.49 nM
  koff: 0.000276 s⁻¹
  kon: 185000 M⁻¹ s⁻¹
